Holding throughout (assay): flow cytometry, soluble tagged antigen staining T cells that carry the construct
On the technique in general: A flow cytometer gives signals particle by particle.

Assay [1] addresses T1, Human TIGIT Protein, Fc Tag (ACRO) (human, UniProt Q495A1 22-141).
T1 construct: Bought reagent (ACRO); no catalogue number, no construct limits; also called Human TIGIT Protein, Fc TagTIGIT; not shown: Fc tag
T1 sequence (looked up): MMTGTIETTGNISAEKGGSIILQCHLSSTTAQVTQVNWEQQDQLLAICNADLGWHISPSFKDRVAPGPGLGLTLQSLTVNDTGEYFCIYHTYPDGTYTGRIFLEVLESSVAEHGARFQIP

The target of assay [2] is T2, Human PD-1 / PDCD1 Protein, His Tag (ACRO) (human, UniProt Q15116 25-167).
T2 construct: Bought reagent (ACRO); no catalogue number, no construct limits; also called CD279; not shown: His tag
T2 sequence (Q15116 25-167 limits assumed): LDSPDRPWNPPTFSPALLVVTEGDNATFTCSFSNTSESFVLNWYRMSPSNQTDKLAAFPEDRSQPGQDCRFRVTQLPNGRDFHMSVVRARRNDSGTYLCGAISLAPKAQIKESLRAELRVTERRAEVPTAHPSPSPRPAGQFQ

Assay [3] has as its target T3, Human NKG2A&CD94 Protein, Fc Tag (ACRO) (human, UniProt P26715 94-233; Q13241 32-179, limits assumed).
T3 construct: Bought heterodimer reagent (ACRO) with Fc tag

Assay [4] has as its target T4, Human CTLA-4 / CD152 Protein, Fc Tag (ACRO) (human, UniProt P16410 36-161, limits assumed).
T4 construct: Bought reagent (ACRO); no catalogue number, no construct limits; not shown: Fc tag
T4 sequence (looked up): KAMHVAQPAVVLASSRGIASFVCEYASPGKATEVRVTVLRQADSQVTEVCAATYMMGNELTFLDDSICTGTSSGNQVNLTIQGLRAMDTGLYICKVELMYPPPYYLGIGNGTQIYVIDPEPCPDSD

T3 sequence (P26715 94-233 limits assumed, chain 1 of 2): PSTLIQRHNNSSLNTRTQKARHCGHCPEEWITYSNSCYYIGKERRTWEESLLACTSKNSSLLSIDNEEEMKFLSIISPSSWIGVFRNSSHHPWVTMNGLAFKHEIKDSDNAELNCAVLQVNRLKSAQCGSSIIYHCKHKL
T3 sequence (Q13241 32-179 limits assumed, chain 2 of 2): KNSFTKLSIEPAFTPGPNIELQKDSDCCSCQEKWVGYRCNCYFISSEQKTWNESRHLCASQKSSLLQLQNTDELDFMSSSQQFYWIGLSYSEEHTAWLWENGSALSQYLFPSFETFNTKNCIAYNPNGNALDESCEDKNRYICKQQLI

B1: immunosuppressive molecule of plasmid CAR19-ATT (anti-NKG2A scFv, linker, anti-TIGIT scFv, IgG4 hinge, CD28 transmembrane region, CD28 co-stimulatory domain), … (other)
chain: EIVLTQSPATLSLSPGERATMTCSASSSVSSYIYWYQQKPGQAPRLLIYLTSNLASGIPARFSGSGSGTDFTLTISSLEPEDFATYYCQQWSGNPYTFGQGTKVEIKGSTSGSGKPGSGEGSTKGEVQLVESGGGLVKPGGSLRLSCAASGFTFSSYAMSWVRQAPGKGLEWVAEISSGGSYTYYPDSVKGRFTISRDNAKNSLYLQMNSLRAEDTAVYYCTRHGDYPRFFDVWGQGTLVTVSSGGGGSGGGGSGGGGSEVQLQQSGPGLVKPSQTLSLTCAISGDSVSSNSAAWNWIRQSPSRGLEWLGKTYYRFKWYSDYAVSVKGRITINPDTSKNQFSLQLNSVTPEDTAVFYCTRESTTYDLLAGPFDYWGQGTLVTVSSGGGGSGGGGSGGGGSDIVMTQSPDSLAVSLGERATINCKSSQTVLYSSNNKKYLAWYQQKPGQPPNLLIYWASTRESGVPDRFSGSGSGTDFTLTISSLQAEDVAVYYCQQYYSTPFTFGPGTKVEIKRESKYGPPCPPCPFWVLVVVGGVLACYSLLVTVAFIIFWVRSKRSRLLHSDYMNMTPRRPGPTRKHYQPYAPPRDFAAYRS
notes: Membrane-anchored on transduced T cells that also express the anti-CD19 CAR
In the case of B1, the binding result in assay [1] was “binds”.

B2: immunosuppressive molecule of plasmid CAR18.2-PA (anti-PD1 scFv, linker, anti-NKG2A scFv, IgG4 hinge, CD28 transmembrane region, CD28 co-stimulatory domain), … (other)
chain: QVQLVQSGVEVKKPGASVKVSCKASGYTFTNYYMYWVRQAPGQGLEWMGGINPSNGGTNFNEKFKNRVTLTTDSSTTTAYMELKSLQFDDTAVYYCARRDYRFDMGFDYWGQGTTVTVSSGGGGSGGGGSGGGGSEIVLTQSPATLSLSPGERATLSCRASKGVSTSGYSYLHWYQQKPGQAPRLLIYLASYLESGVPARFSGSGSGTDFTLTISSLEPEDFAVYYCQHSRDLPLTFGGGTKVEIKGGGGSGGGGSGGGGSEIVLTQSPATLSLSPGERATMTCSASSSVSSYIYWYQQKPGQAPRLLIYLTSNLASGIPARFSGSGSGTDFTLTISSLEPEDFATYYCQQWSGNPYTFGQGTKVEIKGSTSGSGKPGSGEGSTKGEVQLVESGGGLVKPGGSLRLSCAASGFTFSSYAMSWVRQAPGKGLEWVAEISSGGSYTYYPDSVKGRFTISRDNAKNSLYLQMNSLRAEDTAVYYCTRHGDYPRFFDVWGQGTLVTVSSESKYGPPCPPCPFWVLVVVGGVLACYSLLVTVAFIIFWVRSKRSRLLHSDYMNMTPRRPGPTRKHYQPYAPPRDFAAYRS
With B2, the binding result in assay [2] and in assay [3] was “binds” each time.

B3: immunosuppressive molecule of plasmid CAR19-AC4 (anti-NKG2A scFv, linker, anti-CTLA4 scFv, IgG4 hinge, CD28 transmembrane region, CD28 co-stimulatory domain), … (other)
chain: EIVLTQSPATLSLSPGERATMTCSASSSVSSYIYWYQQKPGQAPRLLIYLTSNLASGIPARFSGSGSGTDFTLTISSLEPEDFATYYCQQWSGNPYTFGQGTKVEIKGSTSGSGKPGSGEGSTKGEVQLVESGGGLVKPGGSLRLSCAASGFTFSSYAMSWVRQAPGKGLEWVAEISSGGSYTYYPDSVKGRFTISRDNAKNSLYLQMNSLRAEDTAVYYCTRHGDYPRFFDVWGQGTLVTVSSGGGGSGGGGSGGGGSQVQLVESGGGVVQPGRSLRLSCAASGFTFSSYGMHWVRQAPGKGLEWVAVIWYDGSNKYYADSVKGRFTISRDNSKNTLYLQMNSLRAEDTAVFYCARAPNYIGAFDVWGQGTMVTVSSGGGGSGGGGSGGGGSDIQMTQSPSSLSASVGDRVTITCRASQGISSWLAWYQQKPEKAPKSLIYAASSLQSGVPSRFSGSGSGTDFTLTISSLQPEDFATYYCQQYNSYPPTFGQGTKVEIKESKYGPPCPPCPFWVLVVVGGVLACYSLLVTVAFIIFWVRSKRSRLLHSDYMNMTPRRPGPTRKHYQPYAPPRDFAAYRS
notes: as for B1
As for B3, the binding result in assay [3] and in assay [4] was “binds” in each case.

B4: immunosuppressive molecule of plasmid CAR19-C4TT (anti-CTLA4 scFv, linker, anti-TIGIT scFv, IgG4 hinge, CD28 transmembrane region, CD28 co-stimulatory domain), … (other)
chain: QVQLVESGGGVVQPGRSLRLSCAASGFTFSSYGMHWVRQAPGKGLEWVAVIWYDGSNKYYADSVKGRFTISRDNSKNTLYLQMNSLRAEDTAVFYCARAPNYIGAFDVWGQGTMVTVSSGGGGSGGGGSGGGGSDIQMTQSPSSLSASVGDRVTITCRASQGISSWLAWYQQKPEKAPKSLIYAASSLQSGVPSRFSGSGSGTDFTLTISSLQPEDFATYYCQQYNSYPPTFGQGTKVEIKGGGGSGGGGSGGGGSEVQLQQSGPGLVKPSQTLSLTCAISGDSVSSNSAAWNWIRQSPSRGLEWLGKTYYRFKWYSDYAVSVKGRITINPDTSKNQFSLQLNSVTPEDTAVFYCTRESTTYDLLAGPFDYWGQGTLVTVSSGGGGSGGGGSGGGGSDIVMTQSPDSLAVSLGERATINCKSSQTVLYSSNNKKYLAWYQQKPGQPPNLLIYWASTRESGVPDRFSGSGSGTDFTLTISSLQAEDVAVYYCQQYYSTPFTFGPGTKVEIKRESKYGPPCPPCPFWVLVVVGGVLACYSLLVTVAFIIFWVRSKRSRLLHSDYMNMTPRRPGPTRKHYQPYAPPRDFAAYRS
notes: as for B1
On to B4, for which the binding result in assay [4] and in assay [1] was “binds” each time.

The values above are taken from patent EP4663762A2 (HongKong Bioheng Biotech Limited, dated 2025).
